# What was measured:
# [1] = biological target: T1, active human TNF-α full length protein (human, UniProt P01375 77-233); assay: ELISA, TNF coat 0.125 µg/mL, sdAb 1 µg/mL, anti-llama 1:5,000, HRP 1:50,000
# [2] = biological target: T1, active human TNF-α full length protein; assay: ELISA, TNF coat 0.25 µg/mL, sdAb 1 µg/mL, anti-llama 1:10,000, HRP 1:25,000
# [3] = biological target: T1, active human TNF-α full length protein; assay: ELISA, TNF coat 0.125 µg/mL, sdAb 1 µg/mL, anti-llama 1:10,000, HRP 1:25,000
# [4] = biological target: T1, active human TNF-α full length protein; assay: ELISA, TNF coat 0.25 µg/mL, sdAb 1 µg/mL, anti-llama 1:10,000, HRP 1:50,000
# [5] = biological target: T1, active human TNF-α full length protein; assay: ELISA, TNF coat 0.5 µg/mL, sdAb 1 µg/mL, anti-llama 1:10,000, HRP 1:25,000
# [6] = biological target: T1, active human TNF-α full length protein; assay: ELISA, TNF coat 0.25 µg/mL, sdAb 1 µg/mL, anti-llama 1:5,000, HRP 1:25,000
# [7] = biological target: T1, active human TNF-α full length protein; assay: ELISA, TNF coat 0.25 µg/mL, sdAb 1 µg/mL, anti-llama 1:5,000, HRP 1:50,000
# [8] = biological target: T1, active human TNF-α full length protein; assay: ELISA, TNF coat 0.5 µg/mL, sdAb 1 µg/mL, anti-llama 1:5,000, HRP 1:25,000
# [9] = biological target: T1, active human TNF-α full length protein; assay: ELISA, TNF coat 0.5 µg/mL, sdAb 1 µg/mL, anti-llama 1:5,000, HRP 1:50,000
# [10] = biological target: T1, active human TNF-α full length protein; assay: ELISA, TNF coat 0.125 µg/mL, sdAb 1 µg/mL, anti-llama 1:5,000, HRP 1:25,000
# [11] = biological target: T1, active human TNF-α full length protein; assay: ELISA, TNF coat 0.5 µg/mL, sdAb 1 µg/mL, anti-llama 1:10,000, HRP 1:50,000
# [12] = biological target: T1, active human TNF-α full length protein; assay: ELISA, TNF coat 0.125 µg/mL, sdAb 1 µg/mL, anti-llama 1:10,000, HRP 1:50,000
# [13] = biological target: T1, active human TNF-α full length protein
# T1 sequence (P01375 77-233 limits assumed): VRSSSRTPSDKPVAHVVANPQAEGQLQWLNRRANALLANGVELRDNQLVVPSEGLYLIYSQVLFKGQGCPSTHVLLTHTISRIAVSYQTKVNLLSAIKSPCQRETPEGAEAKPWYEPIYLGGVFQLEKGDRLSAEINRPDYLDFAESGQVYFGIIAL
Signal/Noise Ratio [1],Signal/Noise Ratio [2],Signal/Noise Ratio [3],Signal/Noise Ratio [4],Signal/Noise Ratio [5],Signal/Noise Ratio [6],Signal/Noise Ratio [7],Signal/Noise Ratio [8],Signal/Noise Ratio [9],Signal/Noise Ratio [10],Signal/Noise Ratio [11],Signal/Noise Ratio [12],binding result [13],Binder
1.6 ratio,2.1 ratio,1.5 ratio,1.9 ratio,5.9 ratio,3.2 ratio,2.4 ratio,8 ratio,7.5 ratio,1.6 ratio,3.7 ratio,1.3 ratio,–,anti-TNF-α VHH69 (SEQ ID NO:46) sdAb (VHH) VHH: EVQLVESGGGSVLAGGSLRLSCVASGFTSRYNYMAWFRQAPGKEREGVATIGTASGSADYYGSVKDRFTISQDNAKNTVYLQMNSLKPEDTAMYYCAARTYGTISLTPSDYRYWGQGTLVTVSS
1.1 ratio,1.4 ratio,1.1 ratio,1.3 ratio,1.7 ratio,1.5 ratio,1.4 ratio,2 ratio,1.9 ratio,1.1 ratio,1.5 ratio,0.9 ratio,no binding (tested: 1 µg/mL),anti-TNF-α VHH62 (SEQ ID NO:47) sdAb (VHH) VHH: QVQLVESGGGPVQAGETLRLSCTASGFTFAEADMGWYRQAPGHECELVSTITTEGITSEASSYYADSVRGRFTISRDNAKNMVYLQMNSLKPEDTAVYYCAPDPYAYSTYSDYCSWAQGTQGTLVTVSS
